In patent US20260184777A1 (BEIJING SUNGEN BIOMEDICAL TECHNOLOGY, published 2026):
Numbering of substitutions follows the chain as printed.

What was measured:
[1] = biological target: T1, human S100A8/A9 heterodimeric antigen, His-tagged (hS100A8/A9-His) (human, UniProt P05109 1-93; P06702 1-114); experiment: cell-based or functional assay
T1 sequence 1: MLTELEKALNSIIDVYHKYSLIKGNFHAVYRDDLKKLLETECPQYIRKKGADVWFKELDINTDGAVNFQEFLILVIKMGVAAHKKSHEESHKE
T1 sequence 2: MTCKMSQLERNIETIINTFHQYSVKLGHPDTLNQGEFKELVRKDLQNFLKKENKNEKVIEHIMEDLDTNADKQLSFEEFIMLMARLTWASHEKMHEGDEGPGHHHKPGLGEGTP

[2] = biological target: T1, human S100A8/A9 heterodimeric antigen, …; experiment: cell-based or functional assay; remark: listed apart in the source

B1: CM-2 (antibody, human IgG4 S228P, lambda, V domains shown)
VH: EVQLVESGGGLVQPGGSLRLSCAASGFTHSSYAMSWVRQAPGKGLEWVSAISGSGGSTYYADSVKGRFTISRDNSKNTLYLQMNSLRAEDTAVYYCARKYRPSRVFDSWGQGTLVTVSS
VL: SYELTQPPSVSVAPGQTARITCSGDALGDKYASWYQQKPGQAPVLVIYEDSKRPSGIPERFSGSNSGNTATLTISGTQAEDEADYYCQSNDADSVWVFGGGTKLTVLG
IC50, inhibition of IL-6 release from hS100A8/A9-activated human PBMCs [1]: 0.199 µg/mL

B2: CM-13 (antibody, human IgG4 S228P, lambda, V domains shown)
VH: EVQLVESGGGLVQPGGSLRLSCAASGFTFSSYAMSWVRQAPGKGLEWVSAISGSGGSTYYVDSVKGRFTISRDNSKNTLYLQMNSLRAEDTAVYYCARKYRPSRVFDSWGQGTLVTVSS
VL: B1 VL
IC50, inhibition of IL-6 release from hS100A8/A9-activated human PBMCs [1]: 0.047 µg/mL

B3: CM-112 (antibody, human IgG4 S228P, lambda, V domains shown)
VH: EVQLVESGGGLVQPGGSLRLSCAASGFTFSSYAMSWVRQAPGKGLEWVSAISGSGGSHYYAASVKGRFTISRDNSKNTLYLQMNSLRAEDTAVYYCARKYRPSRVFDAWGQGTLVTVSS
VL: B1 VL with G28H, S51A, S94A
Relative IC50 (IC50 relative to CM-1), IL-6 release from hS100A8/A9-activated human PBMCs [2]: 0.738 relative to CM-1

B4: CM-16 (antibody, human IgG4 S228P, lambda, V domains shown)
VH: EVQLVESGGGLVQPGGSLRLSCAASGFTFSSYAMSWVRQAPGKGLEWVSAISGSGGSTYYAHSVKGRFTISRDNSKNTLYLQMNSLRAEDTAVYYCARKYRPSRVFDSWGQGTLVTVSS
VL: B1 VL
IC50, inhibition of IL-6 release from hS100A8/A9-activated human PBMCs [1]: 0.457 µg/mL

B5: CM-7 (antibody, human IgG4 S228P, lambda, V domains shown)
VH: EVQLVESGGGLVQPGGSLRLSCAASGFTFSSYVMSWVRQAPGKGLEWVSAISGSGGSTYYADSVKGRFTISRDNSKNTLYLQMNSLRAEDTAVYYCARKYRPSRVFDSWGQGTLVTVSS
VL: B1 VL
IC50, inhibition of IL-6 release from hS100A8/A9-activated human PBMCs [1]: 0.12 µg/mL

B6: CM-9 (antibody, human IgG4 S228P, lambda, V domains shown)
VH: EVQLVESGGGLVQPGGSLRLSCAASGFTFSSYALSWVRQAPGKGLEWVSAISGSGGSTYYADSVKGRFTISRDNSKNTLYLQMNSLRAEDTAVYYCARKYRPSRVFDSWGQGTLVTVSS
VL: B1 VL
IC50, inhibition of IL-6 release from hS100A8/A9-activated human PBMCs [1]: 1.56 µg/mL

B7: CM-117 (antibody, human IgG4 S228P, lambda, V domains shown)
VH: B3 VH with S31D, H58T, A108C
VL: B1 VL with S51A, S94A, V95W
Relative IC50 (IC50 relative to CM-1), IL-6 release from hS100A8/A9-activated human PBMCs [2]: 0.367 relative to CM-1

B8: CM-108 (antibody, human IgG4 S228P, lambda, V domains shown)
VH: B3 VH with S31D
VL: B1 VL with S51A, S55D, S94A, V95Y
Relative IC50 (IC50 relative to CM-1), IL-6 release from hS100A8/A9-activated human PBMCs [2]: 1.5 relative to CM-1

B9: CM-103 (antibody, human IgG4 S228P, lambda, V domains shown)
VH: B3 VH with S31D
VL: B1 VL with S51A, S94A, V95R
Relative IC50 (IC50 relative to CM-1), IL-6 release from hS100A8/A9-activated human PBMCs [2]: 0.687 relative to CM-1

B10: CM-25 (antibody, human IgG4 S228P, lambda, V domains shown)
VH: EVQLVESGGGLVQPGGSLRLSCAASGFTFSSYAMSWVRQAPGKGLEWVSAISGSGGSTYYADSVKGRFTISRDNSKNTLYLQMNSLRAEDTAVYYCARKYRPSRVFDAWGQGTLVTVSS
VL: B1 VL
IC50, inhibition of IL-6 release from hS100A8/A9-activated human PBMCs [1]: 0.471 µg/mL

B11: CM-109 (antibody, human IgG4 S228P, lambda, V domains shown)
VH: B3 VH with S31D
VL: B1 VL with G28H, D50H, S51H, S94A
Relative IC50 (IC50 relative to CM-1), IL-6 release from hS100A8/A9-activated human PBMCs [2]: 0.475 relative to CM-1

B12: CM-107 (antibody, human IgG4 S228P, lambda, V domains shown)
VH: B3 VH with S31D
VL: B1 VL with D50H, S51H, S94A
Relative IC50 (IC50 relative to CM-1), IL-6 release from hS100A8/A9-activated human PBMCs [2]: 0.386 relative to CM-1

B13: CM-6 (antibody, human IgG4 S228P, lambda, V domains shown)
VH: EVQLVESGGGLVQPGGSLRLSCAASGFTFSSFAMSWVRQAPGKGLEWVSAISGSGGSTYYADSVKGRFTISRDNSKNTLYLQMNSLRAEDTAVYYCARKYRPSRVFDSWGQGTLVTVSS
VL: B1 VL
IC50, inhibition of IL-6 release from hS100A8/A9-activated human PBMCs [1]: 0.488 µg/mL

B14: CM-21 (antibody, human IgG4 S228P, lambda, V domains shown)
VH: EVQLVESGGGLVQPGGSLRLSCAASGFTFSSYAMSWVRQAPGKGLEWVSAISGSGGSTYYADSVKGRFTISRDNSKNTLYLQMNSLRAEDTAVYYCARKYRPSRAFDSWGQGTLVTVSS
VL: B1 VL
IC50, inhibition of IL-6 release from hS100A8/A9-activated human PBMCs [1]: 0.01 µg/mL

B15: CM-22 (antibody, human IgG4 S228P, lambda, V domains shown)
VH: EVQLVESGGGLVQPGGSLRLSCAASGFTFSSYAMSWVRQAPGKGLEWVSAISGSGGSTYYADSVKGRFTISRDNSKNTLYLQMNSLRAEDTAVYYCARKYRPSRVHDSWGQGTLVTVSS
VL: B1 VL
IC50, inhibition of IL-6 release from hS100A8/A9-activated human PBMCs [1]: 0.162 µg/mL

B16: CM-114 (antibody, human IgG4 S228P, lambda, V domains shown)
VH: B3 VH
VL: B1 VL with D50H, S51H, S94A
Relative IC50 (IC50 relative to CM-1), IL-6 release from hS100A8/A9-activated human PBMCs [2]: 0.899 relative to CM-1

B17: CM-11 (antibody, human IgG4 S228P, lambda, V domains shown)
VH: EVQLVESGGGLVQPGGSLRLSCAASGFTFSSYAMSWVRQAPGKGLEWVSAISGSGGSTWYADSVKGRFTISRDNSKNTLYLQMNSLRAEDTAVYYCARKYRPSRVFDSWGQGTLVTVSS
VL: B1 VL
IC50, inhibition of IL-6 release from hS100A8/A9-activated human PBMCs [1]: 0.038 µg/mL

B18: CM-20 (antibody, human IgG4 S228P, lambda, V domains shown)
VH: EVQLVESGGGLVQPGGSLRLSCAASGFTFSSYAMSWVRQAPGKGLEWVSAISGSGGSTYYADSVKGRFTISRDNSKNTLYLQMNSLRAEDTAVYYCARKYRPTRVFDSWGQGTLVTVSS
VL: B1 VL
IC50, inhibition of IL-6 release from hS100A8/A9-activated human PBMCs [1]: 0.43 µg/mL

B19: CM-17 (antibody, human IgG4 S228P, lambda, V domains shown)
VH: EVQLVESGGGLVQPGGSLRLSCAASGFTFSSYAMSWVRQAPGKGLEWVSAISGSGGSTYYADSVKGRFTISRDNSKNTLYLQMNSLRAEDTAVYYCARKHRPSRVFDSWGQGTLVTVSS
VL: B1 VL
IC50, inhibition of IL-6 release from hS100A8/A9-activated human PBMCs [1]: 0.32 µg/mL

B20: CM-24 (antibody, human IgG4 S228P, lambda, V domains shown)
VH: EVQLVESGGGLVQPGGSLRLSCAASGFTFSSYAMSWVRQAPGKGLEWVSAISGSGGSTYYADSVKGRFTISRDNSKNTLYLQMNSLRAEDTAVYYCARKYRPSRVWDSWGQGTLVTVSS
VL: B1 VL
IC50, inhibition of IL-6 release from hS100A8/A9-activated human PBMCs [1]: 0.67 µg/mL

B21: CM-110 (antibody, human IgG4 S228P, lambda, V domains shown)
VH: B3 VH with S35A, H58T
VL: B1 VL with G28H, S51A, S94A
Relative IC50 (IC50 relative to CM-1), IL-6 release from hS100A8/A9-activated human PBMCs [2]: 0.878 relative to CM-1

B22: CM-111 (antibody, human IgG4 S228P, lambda, V domains shown)
VH: B3 VH with S54H, H58T
VL: B1 VL with S33A, S51A, S94A
Relative IC50 (IC50 relative to CM-1), IL-6 release from hS100A8/A9-activated human PBMCs [2]: 1.08 relative to CM-1

B23: CM-104 (antibody, human IgG4 S228P, lambda, V domains shown)
VH: B3 VH with S31D
VL: B1 VL with S51A, S94A, V95Y
Relative IC50 (IC50 relative to CM-1), IL-6 release from hS100A8/A9-activated human PBMCs [2]: 1.76 relative to CM-1

B24: CM-14 (antibody, human IgG4 S228P, lambda, V domains shown)
VH: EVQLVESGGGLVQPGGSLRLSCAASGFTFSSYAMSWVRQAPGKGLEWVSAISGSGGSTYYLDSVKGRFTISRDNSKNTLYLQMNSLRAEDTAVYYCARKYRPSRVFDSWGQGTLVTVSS
VL: B1 VL
IC50, inhibition of IL-6 release from hS100A8/A9-activated human PBMCs [1]: 2.79 µg/mL

B25: CM-26 (antibody, human IgG4 S228P, lambda, V domains shown)
VH: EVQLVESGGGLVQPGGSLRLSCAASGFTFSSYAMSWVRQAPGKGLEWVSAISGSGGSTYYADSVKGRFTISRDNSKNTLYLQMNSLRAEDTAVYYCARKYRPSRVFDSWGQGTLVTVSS
VL: B1 VL with Y31F
IC50, inhibition of IL-6 release from hS100A8/A9-activated human PBMCs [1]: 0.168 µg/mL

B26: CM-115 (antibody, human IgG4 S228P, lambda, V domains shown)
VH: B3 VH with F29W, S31D, H58T
VL: B1 VL with S51A, S94A, V95W
Relative IC50 (IC50 relative to CM-1), IL-6 release from hS100A8/A9-activated human PBMCs [2]: 1.34 relative to CM-1

B27: CM-4 (antibody, human IgG4 S228P, lambda, V domains shown)
VH: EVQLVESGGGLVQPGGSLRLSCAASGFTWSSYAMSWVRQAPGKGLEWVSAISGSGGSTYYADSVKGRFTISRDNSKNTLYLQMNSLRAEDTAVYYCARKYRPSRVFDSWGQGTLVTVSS
VL: B1 VL
IC50, inhibition of IL-6 release from hS100A8/A9-activated human PBMCs [1]: 0.04 µg/mL

B28: CM-119 (antibody, human IgG4 S228P, lambda, V domains shown)
VH: B3 VH with S31D, H58T, A108Y
VL: B1 VL with S51A, S94A, V95W
Relative IC50 (IC50 relative to CM-1), IL-6 release from hS100A8/A9-activated human PBMCs [2]: 1.37 relative to CM-1

B29: CM-10 (antibody, human IgG4 S228P, lambda, V domains shown)
VH: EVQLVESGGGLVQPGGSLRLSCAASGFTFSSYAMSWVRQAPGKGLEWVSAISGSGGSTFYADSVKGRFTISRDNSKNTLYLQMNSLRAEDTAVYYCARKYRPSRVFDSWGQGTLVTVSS
VL: B1 VL
IC50, inhibition of IL-6 release from hS100A8/A9-activated human PBMCs [1]: 0.438 µg/mL

B30: CM-23 (antibody, human IgG4 S228P, lambda, V domains shown)
VH: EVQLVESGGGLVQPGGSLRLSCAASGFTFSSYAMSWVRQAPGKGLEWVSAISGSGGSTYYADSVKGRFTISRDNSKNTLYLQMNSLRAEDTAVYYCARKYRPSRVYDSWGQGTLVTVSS
VL: B1 VL
IC50, inhibition of IL-6 release from hS100A8/A9-activated human PBMCs [1]: 0.024 µg/mL

B31: CM-5 (antibody, human IgG4 S228P, lambda, V domains shown)
VH: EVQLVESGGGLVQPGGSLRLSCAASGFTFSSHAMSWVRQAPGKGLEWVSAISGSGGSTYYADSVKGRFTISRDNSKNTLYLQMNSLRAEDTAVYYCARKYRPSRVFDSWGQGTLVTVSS
VL: B1 VL
IC50, inhibition of IL-6 release from hS100A8/A9-activated human PBMCs [1]: 0.436 µg/mL

B32: CM-106 (antibody, human IgG4 S228P, lambda, V domains shown)
VH: B3 VH with S31D
VL: B1 VL with G28H, S51A, S94A, V95Y
Relative IC50 (IC50 relative to CM-1), IL-6 release from hS100A8/A9-activated human PBMCs [2]: 0.352 relative to CM-1

B33: CM-18 (antibody, human IgG4 S228P, lambda, V domains shown)
VH: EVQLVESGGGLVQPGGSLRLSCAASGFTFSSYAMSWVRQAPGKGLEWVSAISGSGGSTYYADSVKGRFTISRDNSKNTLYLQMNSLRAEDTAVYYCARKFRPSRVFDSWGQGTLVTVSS
VL: B1 VL
IC50, inhibition of IL-6 release from hS100A8/A9-activated human PBMCs [1]: 0.109 µg/mL

B34: CM-102 (antibody, human IgG4 S228P, lambda, V domains shown)
VH: B3 VH with S31D
VL: B1 VL with S51A, S94A, V95W
Relative IC50 (IC50 relative to CM-1), IL-6 release from hS100A8/A9-activated human PBMCs [2]: 0.464 relative to CM-1

B35: CM-101 (antibody, human IgG4 S228P, lambda, V domains shown)
VH: B3 VH with S31D
VL: B1 VL with S33A, S51A, S94A
Relative IC50 (IC50 relative to CM-1), IL-6 release from hS100A8/A9-activated human PBMCs [2]: 0.683 relative to CM-1

B36: CM-113 (antibody, human IgG4 S228P, lambda, V domains shown)
VH: B3 VH
VL: B1 VL with G28H, S33A, S51A, S94A
Relative IC50 (IC50 relative to CM-1), IL-6 release from hS100A8/A9-activated human PBMCs [2]: 0.442 relative to CM-1

B37: CM-3 (antibody, human IgG4 S228P, lambda, V domains shown)
VH: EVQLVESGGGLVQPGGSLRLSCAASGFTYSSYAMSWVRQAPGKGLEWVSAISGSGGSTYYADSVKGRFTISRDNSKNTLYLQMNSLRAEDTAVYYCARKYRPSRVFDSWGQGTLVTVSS
VL: B1 VL
IC50, inhibition of IL-6 release from hS100A8/A9-activated human PBMCs [1]: 0.029 µg/mL

B38: CM-15 (antibody, human IgG4 S228P, lambda, V domains shown)
VH: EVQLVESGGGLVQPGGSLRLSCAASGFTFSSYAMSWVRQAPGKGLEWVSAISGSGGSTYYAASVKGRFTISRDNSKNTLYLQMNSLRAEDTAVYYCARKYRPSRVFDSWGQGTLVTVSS
VL: B1 VL
IC50, inhibition of IL-6 release from hS100A8/A9-activated human PBMCs [1]: 0.477 µg/mL

B39: CM-105 (antibody, human IgG4 S228P, lambda, V domains shown)
VH: B3 VH with S31D
VL: B1 VL with G28H, S33A, S51A, S94A
Relative IC50 (IC50 relative to CM-1), IL-6 release from hS100A8/A9-activated human PBMCs [2]: 1.5 relative to CM-1

B40: CM-116 (antibody, human IgG4 S228P, lambda, V domains shown)
VH: B3 VH with S31D, H58T, A108F
VL: B1 VL with S51A, S94A, V95W
Relative IC50 (IC50 relative to CM-1), IL-6 release from hS100A8/A9-activated human PBMCs [2]: 0.986 relative to CM-1

B41: CM-100 (antibody, human IgG4 S228P, lambda, V domains shown)
VH: B3 VH with S31D
VL: B1 VL with G28H, S51A, S94A
Relative IC50 (IC50 relative to CM-1), IL-6 release from hS100A8/A9-activated human PBMCs [2]: 1.12 relative to CM-1

B42: CM-19 (antibody, human IgG4 S228P, lambda, V domains shown)
VH: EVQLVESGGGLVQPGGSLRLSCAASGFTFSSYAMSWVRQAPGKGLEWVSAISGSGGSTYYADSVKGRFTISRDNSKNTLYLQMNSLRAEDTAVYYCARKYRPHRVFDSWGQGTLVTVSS
VL: B1 VL
IC50, inhibition of IL-6 release from hS100A8/A9-activated human PBMCs [1]: 0.619 µg/mL

B43: CM-8 (antibody, human IgG4 S228P, lambda, V domains shown)
VH: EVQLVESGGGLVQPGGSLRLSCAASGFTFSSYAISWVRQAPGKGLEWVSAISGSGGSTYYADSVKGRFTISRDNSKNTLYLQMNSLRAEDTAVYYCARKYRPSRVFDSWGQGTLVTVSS
VL: B1 VL
IC50, inhibition of IL-6 release from hS100A8/A9-activated human PBMCs [1]: 0.458 µg/mL

B44: CM-118 (antibody, human IgG4 S228P, lambda, V domains shown)
VH: B3 VH with S31D, H58T, A108H
VL: B1 VL with S51A, S94A, V95W
Relative IC50 (IC50 relative to CM-1), IL-6 release from hS100A8/A9-activated human PBMCs [2]: 1.63 relative to CM-1

B45: CM-12 (antibody, human IgG4 S228P, lambda, V domains shown)
VH: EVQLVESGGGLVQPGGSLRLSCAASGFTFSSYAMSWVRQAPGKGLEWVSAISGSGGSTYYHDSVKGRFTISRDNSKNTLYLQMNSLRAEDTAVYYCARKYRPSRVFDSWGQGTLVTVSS
VL: B1 VL
IC50, inhibition of IL-6 release from hS100A8/A9-activated human PBMCs [1]: 0.047 µg/mL
